Columns and labels:
HLA-A*01:01 = assay: IEDB peptide-MHC binding, purified MHC/direct/fluorescence; filed as Kd, often an IC50 or EC50 that approximates it; ≥ and ≤ were set here for values at or beyond the usual limits of such assays
HLA-A*02:01 = assay: as above
HLA-A*11:01 = assay: as above
HLA-A*31:01 [1] = assay: as above
HLA-A*68:02 = assay: as above
HLA-A*69:01 = assay: as above
HLA-B*15:01 [2] = assay: as above
HLA-B*15:17 = assay: as above
HLA-B*18:01 = assay: as above
HLA-B*40:01 [3] = assay: as above
HLA-B*46:01 = assay: as above
HLA-B*48:01 = assay: as above
HLA-B*57:01 = assay: as above
HLA-B*58:01 = assay: as above
HLA-A*02:06 = assay: IEDB peptide-MHC binding, purified MHC/competitive/fluorescence; filed as Kd, often an IC50 or EC50 that approximates it; ≥ and ≤ were set here for values at or beyond the usual limits of such assays; details: source organism: Ehrlichia chaffeensis
HLA-A*26:01 [4] = assay: as above; details: source organism: Ehrlichia chaffeensis
HLA-A*26:03 [5] = assay: as above; details: source organism: Ehrlichia chaffeensis
HLA-B*07:02 [6] = assay: as above; details: source organism: Ehrlichia chaffeensis
HLA-B*27:05 [7] = assay: as above; details: source organism: Ehrlichia chaffeensis
HLA-B*35:01 = assay: as above; details: source organism: Ehrlichia chaffeensis
HLA-A*03:01 [8] = assay: IEDB peptide-MHC binding, purified MHC/direct/fluorescence; filed as Kd, often an IC50 or EC50 that approximates it; ≥ and ≤ were set here for values at or beyond the usual limits of such assays
HLA-A*26:01 [9] = assay: as above
HLA-A*26:03 [10] = assay: as above; details: source organism: Burkholderia mallei ATCC 23344
HLA-B*07:02 [11] = assay: as above
HLA-B*27:05 [12] = assay: as above
HLA-B*15:01 [13] = assay: IEDB peptide-MHC binding, purified MHC/competitive/fluorescence; filed as Kd, often an IC50 or EC50 that approximates it; ≥ and ≤ were set here for values at or beyond the usual limits of such assays
HLA-C*06:02 = assay: IEDB peptide-MHC binding, purified MHC/direct/fluorescence; filed as Kd, often an IC50 or EC50 that approximates it; ≥ and ≤ were set here for values at or beyond the usual limits of such assays; details: source organism: Yersinia pseudotuberculosis IP 31758
HLA-A*68:23 = assay: IEDB peptide-MHC binding, purified MHC/competitive/fluorescence; filed as Kd, often an IC50 or EC50 that approximates it; ≥ and ≤ were set here for values at or beyond the usual limits of such assays
HLA-B*15:42 = assay: as above
HLA-B*40:01 [14] = assay: as above; details: source organism: Yersinia pseudotuberculosis IP 31758
HLA-B*45:06 = assay: as above
HLA-B*83:01 = assay: as above
HLA-A*03:01 [15] = assay: as above; details: source organism: Influenza A virus H3N2
HLA-A*31:01 [16] = assay: as above; details: source organism: Influenza A virus H3N2
HLA-A*30:01 = assay: IEDB peptide-MHC binding, purified MHC/direct/fluorescence; filed as Kd, often an IC50 or EC50 that approximates it; ≥ and ≤ were set here for values at or beyond the usual limits of such assays; details: source organism: Rickettsia sibirica
HLA-B*08:01 = assay: as above; details: source organism: Rickettsia sibirica
HLA-B*44:02 = assay: as above; details: source organism: Rickettsia sibirica
[17] = source organism: Brucella abortus 2308
[18] = source organism: Burkholderia mallei
[19] = source organism: Yersinia pseudotuberculosis IP 31758
[20] = source organism: Influenza A virus H3N2
[21] = source organism: Rickettsia sibirica

Question: Which Kd (HLA-A*01:01; [17]) does the source give for RVYKNYDPR here?
Answer: ≥ 20 µM

Question: What about the Kd (HLA-A*02:01; [17]) of the same sequence?
Answer: ≥ 20 µM

Question: And the Kd (HLA-A*11:01; [17])?
Answer: 0.101 µM

Question: And the Kd (HLA-A*31:01 [1]; [17])?
Answer: 0.0513 µM

Question: And the Kd (HLA-A*68:02; [17])?
Answer: ≥ 20 µM

Question: And the Kd (HLA-A*69:01; [17])?
Answer: ≥ 20 µM

Question: What about the Kd (HLA-B*15:01 [2]; [17]) of the same sequence?
Answer: ≥ 20 µM

Question: What about the Kd (HLA-B*15:17; [17]) of the same sequence?
Answer: ≥ 20 µM

Question: And the Kd (HLA-B*18:01; [17])?
Answer: ≥ 20 µM

Question: What about the Kd (HLA-B*40:01 [3]; [17]) of the same sequence?
Answer: ≥ 20 µM

Question: What about the Kd (HLA-B*46:01; [17]) of the same sequence?
Answer: ≥ 20 µM

Question: What about the Kd (HLA-B*48:01; [17]) of the same sequence?
Answer: ≥ 20 µM

Question: And the Kd (HLA-B*57:01; [17])?
Answer: ≥ 20 µM

Question: What about the Kd (HLA-B*58:01; [17]) of the same sequence?
Answer: ≥ 20 µM

Question: And the Kd (HLA-A*02:06)?
Answer: ≥ 20 µM

Question: What about the Kd (HLA-A*26:01 [4]) of the same sequence?
Answer: ≥ 20 µM

Question: What about the Kd (HLA-A*26:03 [5]) of the same sequence?
Answer: ≥ 20 µM

Question: And the Kd (HLA-B*07:02 [6])?
Answer: ≥ 20 µM

Question: What about the Kd (HLA-B*27:05 [7]) of the same sequence?
Answer: 1.06 µM

Question: And the Kd (HLA-B*35:01)?
Answer: 1.67 µM

Question: Which Kd (HLA-A*01:01; [18]) does the source give for IQRRGAQFQ here?
Answer: ≥ 20 µM

Question: And the Kd (HLA-A*02:01; [18])?
Answer: ≥ 20 µM

Question: And the Kd (HLA-A*03:01 [8]; [18])?
Answer: ≥ 20 µM

Question: What about the Kd (HLA-A*11:01; [18]) of the same sequence?
Answer: ≥ 20 µM

Question: What about the Kd (HLA-A*26:01 [9]; source organism: Burkholderia mallei ATCC 23344) of the same sequence?
Answer: ≥ 20 µM

Question: What about the Kd (HLA-A*26:03 [10]) of the same sequence?
Answer: ≥ 20 µM

Question: And the Kd (HLA-A*31:01 [1]; [18])?
Answer: ≥ 20 µM

Question: What about the Kd (HLA-A*68:02; [18]) of the same sequence?
Answer: ≥ 20 µM

Question: And the Kd (HLA-B*07:02 [11]; [18])?
Answer: ≥ 20 µM

Question: What about the Kd (HLA-B*15:17; [18]) of the same sequence?
Answer: ≥ 20 µM

Question: And the Kd (HLA-B*18:01; [18])?
Answer: ≥ 20 µM

Question: What about the Kd (HLA-B*27:05 [12]; [18]) of the same sequence?
Answer: ≥ 20 µM

Question: And the Kd (HLA-B*40:01 [3]; [18])?
Answer: ≥ 20 µM

Question: And the Kd (HLA-B*46:01; [18])?
Answer: ≥ 20 µM

Question: What about the Kd (HLA-B*48:01; [18]) of the same sequence?
Answer: ≥ 20 µM

Question: What about the Kd (HLA-B*57:01; [18]) of the same sequence?
Answer: ≥ 20 µM

Question: And the Kd (HLA-B*58:01; [18])?
Answer: ≥ 20 µM

Question: And the Kd (HLA-B*15:01 [13]; source organism: Burkholderia mallei SAVP1)?
Answer: 3.18 µM

Question: Which Kd (HLA-C*06:02) does the source give for RQMRASAPL here?
Answer: ≥ 20 µM

Question: And the Kd (HLA-A*68:23; [19])?
Answer: 0.0024 µM

Question: And the Kd (HLA-B*15:01 [13]; [19])?
Answer: 0.145 µM

Question: What about the Kd (HLA-B*15:42; [19]) of the same sequence?
Answer: ≥ 5 µM

Question: What about the Kd (HLA-B*40:01 [14]) of the same sequence?
Answer: 0.0181 µM

Question: What about the Kd (HLA-B*45:06; [19]) of the same sequence?
Answer: ≥ 5 µM

Question: And the Kd (HLA-B*83:01; [19])?
Answer: ≥ 5 µM

Question: What does the source list for FSFGGFTFK?
Answer: Kd (HLA-A*03:01 [15]): 0.0037 µM; Kd (HLA-A*31:01 [16]): ≤ 0.001 µM; Kd (HLA-A*68:23; [20]): 0.0219 µM; Kd (HLA-B*15:42; [20]): ≥ 5 µM; Kd (HLA-B*45:06; [20]): ≥ 5 µM; Kd (HLA-B*83:01; [20]): ≥ 5 µM

Question: What does the source list for AIKPITDQF?
Answer: Kd (HLA-A*01:01; [21]): ≥ 20 µM; Kd (HLA-A*02:01; [21]): ≥ 20 µM; Kd (HLA-A*03:01 [8]; [21]): ≥ 20 µM; Kd (HLA-A*26:01 [9]; [21]): ≥ 20 µM; Kd (HLA-A*30:01): 8.09 µM; Kd (HLA-A*31:01 [1]; [21]): ≥ 20 µM; Kd (HLA-A*69:01; [21]): ≥ 20 µM; Kd (HLA-B*07:02 [11]; [21]): 5.83 µM; Kd (HLA-B*08:01): ≥ 20 µM; Kd (HLA-B*15:01 [2]; [21]): ≥ 20 µM; Kd (HLA-B*27:05 [12]; [21]): ≥ 20 µM; Kd (HLA-B*40:01 [3]; [21]): ≥ 20 µM; Kd (HLA-B*44:02): ≥ 20 µM; Kd (HLA-B*58:01; [21]): ≥ 10 µM

Reference: the Immune Epitope Database (IEDB)
